Assay results reported in patent US20190202925A1 (OPI VI IP HOLDCO, published 2019).
Where two headings read alike, the source gives them in different places.

T1: monomeric human TNFR2 extracellular domain (human, UniProt P20333 23-257)
T1 construct: extracellular domain; Analyte in the Octet experiments; also called human TNFR2 ECD
T1 sequence (looked up): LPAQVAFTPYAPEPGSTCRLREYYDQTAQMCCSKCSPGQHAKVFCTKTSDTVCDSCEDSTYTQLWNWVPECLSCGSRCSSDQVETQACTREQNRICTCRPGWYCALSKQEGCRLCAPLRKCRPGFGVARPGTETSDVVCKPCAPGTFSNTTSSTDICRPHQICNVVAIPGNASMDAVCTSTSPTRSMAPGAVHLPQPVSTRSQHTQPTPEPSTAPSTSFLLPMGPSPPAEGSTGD

T2: monomeric cynomolgus TNFR2 extracellular domain (cynomolgus monkey, UniProt A0A2K5VET2 132-366)
T2 construct: extracellular domain; Analyte in the Octet experiments; also called cynomolgus TNFR2 ECD; Cyno TNFR2
T2 sequence: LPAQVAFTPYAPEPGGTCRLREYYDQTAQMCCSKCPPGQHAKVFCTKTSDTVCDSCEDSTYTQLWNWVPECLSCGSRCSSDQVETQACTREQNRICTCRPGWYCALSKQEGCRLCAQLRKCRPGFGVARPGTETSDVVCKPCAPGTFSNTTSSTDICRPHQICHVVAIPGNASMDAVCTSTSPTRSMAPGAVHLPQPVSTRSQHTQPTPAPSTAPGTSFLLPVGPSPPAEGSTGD

T3: soluble cynomolgus TNFR2 (cynomolgus, UniProt A0A2K5VET2 132-366)
T3 sequence: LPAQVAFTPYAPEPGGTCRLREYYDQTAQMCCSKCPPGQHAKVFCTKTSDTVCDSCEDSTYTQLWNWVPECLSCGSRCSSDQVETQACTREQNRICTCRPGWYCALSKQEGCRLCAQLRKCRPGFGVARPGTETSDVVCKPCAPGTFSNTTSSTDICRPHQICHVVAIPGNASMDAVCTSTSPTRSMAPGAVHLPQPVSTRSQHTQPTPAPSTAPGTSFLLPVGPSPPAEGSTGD

T4: soluble human TNFR2 (human, UniProt P20333 23-257)
T4 construct: also called soluble TNFR2
T4 sequence (looked up): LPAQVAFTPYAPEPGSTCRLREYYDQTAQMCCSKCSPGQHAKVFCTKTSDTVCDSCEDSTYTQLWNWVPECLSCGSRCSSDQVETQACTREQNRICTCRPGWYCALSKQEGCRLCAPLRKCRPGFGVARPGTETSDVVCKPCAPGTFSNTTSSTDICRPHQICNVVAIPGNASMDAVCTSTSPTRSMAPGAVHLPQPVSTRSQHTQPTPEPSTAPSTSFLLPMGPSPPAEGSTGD


Experiments:
[1] = molecular target: T1, monomeric human TNFR2 extracellular …; assay: BLI (Octet Red 96), antibody captured on Fc biosensor, monomeric TNFR2 ECD in solution, 1:1 model
[2] = molecular target: T2, monomeric cynomolgus TNFR2 …; assay: as above
soluble cynomolgus TNFR2 [3] = molecular target: T3, soluble cynomolgus TNFR2; assay: competition ELISA: plate-bound soluble cynomolgus TNFR2, competitor biotinylated TNFα; IC50 relative to unlabelled TNFα = 1.00
Experimental: (§1) Soluble human TNFR2 (Sino Biological, 10417-H08H) or cynomolgus TNFR2 (Sino Biological, 90102-C08H) was coated on Nunc-Immuno™ plates at 0.1 μg/ml, 0.5 ug/ml, 1 μg/ml, and 5 μg/ml. […] Plates were developed using TMB and stopped with 3 M HCl.
(§2) IC₅₀ values are reported in nM.

soluble human TNFR2 [4] = molecular target: T4, soluble human TNFR2; assay: competition ELISA: plate-bound soluble human TNFR2, competitor biotinylated TNFα; IC50 relative to unlabelled TNFα = 1.00
Experimental: as §1, §2

soluble human TNFR2 [5] = molecular target: T4, soluble human TNFR2; assay: competition ELISA: plate-bound soluble human TNFR2, competitor biotinylated TNFα, streptavidin-HRP, A450
Experimental: as §1

soluble human TNFR2 [6] = molecular target: T4, soluble human TNFR2; assay: competition ELISA: plate-bound soluble human TNFR2, competitor biotinylated TNFα; IC50 relative to unlabelled TNFα = 1.00; remark: listed apart in the source
Experimental: as §1

soluble cynomolgus TNFR2 [7] = molecular target: T3, soluble cynomolgus TNFR2; assay: competition ELISA: plate-bound soluble cynomolgus TNFR2, competitor biotinylated TNFα, streptavidin-HRP, A450
Experimental: as §1

soluble cynomolgus TNFR2 [8] = molecular target: T3, soluble cynomolgus TNFR2; assay: competition ELISA: plate-bound soluble cynomolgus TNFR2, competitor biotinylated TNFα; IC50 relative to unlabelled TNFα = 1.00; remark: listed apart in the source
Experimental: as §1

soluble cynomolgus TNFR2 [9] = molecular target: T3, soluble cynomolgus TNFR2; assay: competition ELISA: plate-bound soluble cynomolgus TNFR2, competitor biotinylated TNFα, streptavidin-HRP, A450; remark: listed apart in the source
Experimental: as §1

[10] = molecular target: T5, cynomolgus TNFR2 on cells (cynomolgus); assay: flow cytometry on cynomolgus PBMC, antibody at 10 ug/mL, anti-human Fc-PE secondary
T5 construct: whole, on cells; also called cynomolgus TNFR2 on CD4+ and CD8+ T cells
Experimental: Cynomolgus peripheral blood mononuclear cells (PBMCs) from two independent donors were isolated by diluting whole blood (SNBL USA) 1:1 in PBS (Lonza), layering over Ficoll-Paque Plus (GE Healthcare), and centrifuging for 35 minutes at 400×g. The PBMC fraction was removed, washed 3 times in 2% FBS PBS and counted. 0.3×10⁶ PBMC were resuspended in Fixable Viability Stain 575V (BD) diluted 1:1000 in PBS and incubated for 10 minutes. PBMC were then washed twice in PBS to remove residual viability stain, resuspended in Horizon Brilliant Stain Buffer (BD) with 10 uL per test of human Fc receptor binding inhibitor (eBioscience), and incubated on ice for 20 minutes to block Fc receptors. […] PBMC were incubated 20 minutes on ice and then washed three times with 2% FBS PBS. To visualize TNFR2 chimeric antibody binding, PBMC were resuspended in goat anti-human Fc-PE F(ab′)₂ secondary reagent (Jackson ImmunoResearch) diluted 1:200 in 2% FBS PBS and incubated on ice for 20 minutes. Cells were then washed three times in 2% FBS PBS and resuspended in 200 uL 2% FBS PBS for flow cytometry analysis using a BD FACS Celesta instrument and FACS Diva software. T cells were analyzed for chimeric TNFR2 binding by gating on viable cells defined as lymphocytes using forward and side scatter and as T cells by anti-CD3 staining. CD4⁺ and CD8⁺ subsets were identified using commercial specific antibody conjugates.

soluble cynomolgus TNFR2 [11] = molecular target: T3, soluble cynomolgus TNFR2; assay: competition ELISA, plate-bound soluble cynomolgus TNFR2, biotinylated TNFα as competitor
Experimental: as §1, §2

Kd [1] | Kd [2] | Relative IC50 (soluble cynomolgus TNFR2 [3]) | Relative IC50 (soluble human TNFR2 [4]) | IC50 (soluble human TNFR2 [5]) | Relative IC50 (soluble human TNFR2 [6]) | IC50 (soluble cynomolgus TNFR2 [7]) | Relative IC50 (soluble cynomolgus TNFR2 [8]) | IC50 (soluble cynomolgus TNFR2 [9]) | % CD4^+ ab^+ Donor 1 [10] | % CD4^+ ab^+ Donor 2 [10] | % CD8^+ ab^+ Donor 1 [10] | % CD8^+ ab^+ Donor 2 [10] | Average Relative IC50 (soluble cynomolgus TNFR2 [11]) | Binder
0.8 nM | 0.62 nM | 2.87 nM | 2.98 nM | 16.5 nM | 3.03 nM | 15.6 nM | 4.16 nM | 27.6 nM | 9% | 14.1% | 9.5% | 29% | 3.38 | chimeric SBT-002 (antibody, V domains shown, also called chSBT-002) VH: QVTLKESGPGILQPSQTLSLTCSFSGFSLSTSGMGVGWIRQPSGKGLEWLAHIWWDDDKFYNPSLKSQLTISKDTSRNQVFLKLTSVVTADTATYYCARLTGTRYFDYWGQGTTLTVSS VL: DVQMTQSPSSLSASLGGKVTITCKASQDINKFIAWYQHKPGKGPRLLIHYTSTLQPGIPSKFSGSGSGRDYSFSISNLEPEDIATYYCLQYGNLWTFGGGTKLEIT
3.6 nM | 3.4 nM | 3.22 nM | 3.54 nM | 19.6 nM | 6.72 nM | 16.7 nM | 4.45 nM | 31 nM | 10.2% | 7.6% | 11.2% | 18.4% | 3.64 | chimeric SBT-004 (antibody, V domains shown, VH fused to a human IgG1 Fc domain; also called chSBT-004) VH: EVQLQQSGPEVGRPGSSVKISCKASGYTFTDYIMHWVKQSPGQGLEWIGWVDPEYGSTDYAEKFKKKATLTADTSSNTAYIQLSSLTSEDTATYFCARDDGSYSPFDYWGQGVMVTVSS VL: DIQMTQSPPSLSASLGDKVTITCQASQNINKYIAWYQQKPGKAPRLLIRYTSTLESGTPSRFSGSGSGRDYSFSISNVESEDIASYYCLQYVNLLTFGAGTKLEIK
